Numbered stars: 1 amine (or outer) side, 2 acyl side, 3 side chain; on linkers, the order of the positions; unused ones are H or OH. Bridge positions count the residues as written; N and C are the ends. Square brackets hold non-standard residues; d marks the D form. Ends that are not written are not given here. I, II: the chains in the order shown. * marks the point of attachment. Cys(Acm) = Cys protected with acetamidomethyl (Acm), CC(=O)NCSC[C@H](N[*:1])C(=O)[*:2]; Biotin = O=C1N[C@H]2[C@H](CS[C@H]2CCCCC(=O)*)N1; Ttds = O=C(CCC(=O)[*:2])NCCCOCCOCCOCCCN[*:1]
Legend:
Test in all cases: cell-based or functional assay
HIV-1 gp41 (strain HXB2) [1] = target: T1, HIV-1 gp41 (strain HXB2) (HIV-1 strain HXB2, UniProt P04578 512-856)
HIV-1 gp41 (strain BaL) = HIV-1 gp41 (strain BaL) (HIV-1 strain BaL)
HIV-1 gp41 (strain 89.6) = HIV-1 gp41 (strain 89.6) (HIV-1 strain 89.6)
[2] = target: HIV-1 gp41 (strain NL4-3) (HIV-1 strain NL4-3)
gp41 of SHIV-89.6P = gp41 of SHIV-89.6P (SHIV-89.6P)
HIV-1 gp41 (strain MN-1) = HIV-1 gp41 (strain MN-1) (HIV-1 strain MN-1, UniProt P05877 514-856)
HIV-1 gp41 (strain HXB2) [3] = target: T1, HIV-1 gp41 (strain HXB2); remark: listed apart in the source
HIV-1 gp41 (strain HXB2) [4] = target: T1, HIV-1 gp41 (strain HXB2); remark: listed apart in the source

Sequence of HIV-1 gp41 (strain MN-1) (P05877 514-856 limits assumed): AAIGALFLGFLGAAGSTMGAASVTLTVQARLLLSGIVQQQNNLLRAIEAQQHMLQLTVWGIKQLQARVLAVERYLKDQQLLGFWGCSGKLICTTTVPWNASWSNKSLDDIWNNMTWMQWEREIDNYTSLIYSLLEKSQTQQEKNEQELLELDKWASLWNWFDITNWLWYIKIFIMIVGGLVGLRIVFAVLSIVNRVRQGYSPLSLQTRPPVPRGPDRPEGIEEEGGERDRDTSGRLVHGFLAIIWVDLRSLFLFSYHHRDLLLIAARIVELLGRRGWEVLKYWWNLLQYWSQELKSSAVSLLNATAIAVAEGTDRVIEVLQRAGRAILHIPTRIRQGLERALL

B1: (CCIZN17)3 (peptide)
peptide: Ac-CCGGIKKEIEAIKKEQEAIKKKIEAIEKLLQLTVWGIKQLQARIL-NH2
modifications: not fully specified (bridges); also: homotrimer of three chains, cysteine pairing not given here
IC50, single-cycle HIV infectivity assay (HIV-1 gp41 (strain HXB2) [1]): 0.04 nM | IC50, single-cycle HIV infectivity assay (HIV-1 gp41 (strain BaL)): 0.34 nM | IC50, single-cycle HIV infectivity assay (HIV-1 gp41 (strain 89.6)): 8 nM | IC50, single-cycle HIV infectivity assay [2]: 0.1 nM | IC50, single-cycle HIV infectivity assay (gp41 of SHIV-89.6P): 6.9 nM | IC50, single-cycle HIV infectivity assay (HIV-1 gp41 (strain MN-1)): 0.9 nM | IC50, anti-viral assay against HIV-1 HXB2 (FIG. 13) (HIV-1 gp41 (strain HXB2) [3]): 0.132 nM

B2: IZN17 (peptide)
peptide: Ac-IKKEIEAIKKEQEAIKKKIEAIEKLLQLTVWGIKQLQARIL-NH2
modifications: also: non-covalent trimeric coiled-coil
IC50, single-cycle HIV infectivity assay (HIV-1 gp41 (strain HXB2) [1]): 1.7 nM | IC50, single-cycle HIV infectivity assay (HIV-1 gp41 (strain BaL)): 3.2 nM | IC50, anti-viral assay against HIV-1 HXB2 (FIG. 13) (HIV-1 gp41 (strain HXB2) [3]): 1.68 nM | IC50, single-cycle infectivity assay, HIV-1 HXB2 (HIV-1 gp41 (strain HXB2) [3]): 0.2 nM

B3: (CCI10N17)3 (peptide)
peptide: Ac-CCGGIKKKIEAIEKLLQLTVWGIKQLQARIL-NH2
modifications: not fully specified (bridges); also: homotrimer of three chains, cysteine pairing not given here
IC50, anti-viral assay against HIV-1 HXB2 (FIG. 13) (HIV-1 gp41 (strain HXB2) [3]): 24 nM | fold change of IC50 against (CCIZN17)3, anti-viral assay against HIV-1 HXB2 (FIG. 13) (HIV-1 gp41 (strain HXB2) [3]): ~150 fold | fold change of IC50 against IZN17, anti-viral assay against HIV-1 HXB2 (FIG. 13) (HIV-1 gp41 (strain HXB2) [3]): ~10 fold

B4: IZN17Ala4 (peptide)
peptide: Ac-IKKEIEAIKKEQEAIKKKIEAIEKLLQLTVWGIKALAAAIA-NH2
IC50, anti-viral activity against HIV-HXB2 (HIV-1 gp41 (strain HXB2) [4]): 25.3 nM | IC50, single-cycle infectivity assay, HIV-1 HXB2 (FIG. 12A) (HIV-1 gp41 (strain HXB2) [3]): 25 nM

B5: (CCIZN13)3 (peptide)
peptide: Ac-CCGGIKKEIEAIKKEQEAIKKKIEAIEKLLQLTVWGIKQLQ
modifications: not fully specified (bridges); also: homotrimer of three chains, cysteine pairing not given here
IC50, antiviral activity against HIV HXB2 (FIG. 13) (HIV-1 gp41 (strain HXB2) [3]): 85.3 nM

B6: NH2-C(Fm)(thioIZN17)3 (peptide)
peptide 1: CCCGGIKKEIEAIKKEQEAIKKKIEAIEKLLQLTVWGIKQLQARIL
peptide 2: GGGIKKEIEAIKKEQEAIKKKIEAIEKLLQLTVWGIKQLQARIL
modifications: N-terminal acetyl (from bromoacetyl) joined by a thioether bond to a Cys of the CC chain; free N-terminal amine; Cys1 thiol protected with Fm; Ttds linker between Cys1 and Cys2; Cys2 and Cys3 each joined by a thioether bond to the N-terminal acetyl of a GGGIZN17 chain
IC50, single cell infectivity assay, HIV-1 HXB2 (HIV-1 gp41 (strain HXB2) [3]): 1.1 nM

B7: ac-C(thioIZN17)3 (peptide)
peptide 1: B6 peptide 1
peptide 2: B6 peptide 2
modifications: N-terminal acetyl (from bromoacetyl) joined by a thioether bond to a Cys of the CC chain; N-terminal acetyl; Cys1 free thiol; Ttds linker between Cys1 and Cys2; Cys2 and Cys3 each joined by a thioether bond to the N-terminal acetyl of a GGGIZN17 chain
IC50, anti-viral activity assay, HIV-HXB2 (HIV-1 gp41 (strain HXB2) [3]): 0.24 nM

B8: ac-C(Acm)(thioS17N17)3 (peptide)
peptide 1: CCCGGIEKKIEAIEKKIEAIEKLLQLTVWGIKQLQARIL
peptide 2: GGGIEKKIEAIEKKIEAIEKLLQLTVWGIKQLQARIL
modifications: N-terminal acetyl (from bromoacetyl) joined by a thioether bond to a Cys of the CC chain; N-terminal acetyl; Cys1 thiol protected with Acm; Ttds linker between Cys1 and Cys2; Cys2 and Cys3 each joined by a thioether bond to the N-terminal acetyl of a GGGS17N17 chain
IC50, single cell infectivity assay, HIV-1 HXB2 (HIV-1 gp41 (strain HXB2) [3]): 0.27 nM

B9: Biotin-IZN23 (peptide)
peptide: Biotin-GGIKKEIEAIKKEQEAIKKKIEAIEKEIEAQQHLLQLTVWGIKQLQARIL
IC50, single-cycle HIV infectivity assay (HIV-1 gp41 (strain HXB2) [1]): 2.17 nM

B10: (Biotin-CCIZN23)3 (peptide)
peptide: Biotin-GCCGGIKKEIEAIKKEQEAIKKKIEAIEKEIEAQQHLLQLTVWGIKQLQARIL
modifications: not fully specified (bridges); also: covalent homotrimer via three interchain disulfides
IC50, single-cycle HIV infectivity assay (HIV-1 gp41 (strain HXB2) [1]): 0.316 nM

B11: (I10N17CC)3 (peptide)
peptide: IKKKIEAIEKLLQLTVWGIKQLQARILGGCC
modifications: not fully specified (bridges); also: homotrimer of three chains, cysteine pairing not given here
IC50, anti-viral activity against HIV-HXB2 (HIV-1 gp41 (strain HXB2) [4]): 77.6 nM

B12: (CCIZN17Ala4)3 (peptide)
peptide: Ac-CCGGIKKEIEAIKKEQEAIKKKIEAIEKLLQLTVWGIKALAAAIA-NH2
modifications: not fully specified (bridges); also: homotrimer of three chains, cysteine pairing not given here
IC50, anti-viral activity against HIV-HXB2 (HIV-1 gp41 (strain HXB2) [4]): 47 nM

B13: (CCS17N17)3 (peptide)
peptide chain of the covalent trimer: Ac-CCGGIEKKIEAIEKKIEAIEKLLQLTVWGIKQLQARIL-NH2
modifications: not fully specified (bridges); also: homotrimer of three chains, cysteine pairing not given here
IC50, anti-viral activity against HIV-HXB2 (HIV-1 gp41 (strain HXB2) [4]): 0.33 nM

B14: ac-C(Acm)(thioIZN17)3 (peptide)
peptide 1: B6 peptide 1
peptide 2: B6 peptide 2
modifications: N-terminal acetyl (from bromoacetyl) joined by a thioether bond to a Cys of the CC chain; N-terminal acetyl; Cys1 thiol protected with acetamidomethyl (Acm); Ttds linker between Cys1 and Cys2; Cys2 and Cys3 each joined by a thioether bond to the N-terminal acetyl of a GGGIZN17 chain
IC50, anti-viral activity against HIV-HXB2 (HIV-1 gp41 (strain HXB2) [4]): 0.24 nM

B15: ac-C(Acm)(thioE10N17)3 (peptide)
peptide 1: Ac-[Cys(Acm)][Ttds]CCIEEKIEEIEELLQLTVWGIKQLQARIL
peptide 2: Ac-GGGIEEKIEEIEELLQLTVWGIKQLQARIL
modifications: bridge I:N-I:4; thioether (positions not given here); not fully specified (bridges); also: trimer, copy numbers of chains not given here
IC50, anti-viral activity against HIV-HXB2 (HIV-1 gp41 (strain HXB2) [4]): 150 nM

Source: patent US20070224212A1 (Merck Sharp & Dohme, published 2007)
